Assay results taken from patent US20170101470A1 (PROTHENA BIOSCIENCES, published 2017).

Assays:
[1] = biological target: T1, human MCAM expressed on CHO cells (full length human MCAM gene) (human, UniProt P43121 24-646); experiment: flow cytometry: blocking of recombinant human laminin 411 (20 ug/ml) binding to CHO cells expressing human MCAM
T1 construct: also called hMCAM expressing CHO cells; CD146
T1 chain: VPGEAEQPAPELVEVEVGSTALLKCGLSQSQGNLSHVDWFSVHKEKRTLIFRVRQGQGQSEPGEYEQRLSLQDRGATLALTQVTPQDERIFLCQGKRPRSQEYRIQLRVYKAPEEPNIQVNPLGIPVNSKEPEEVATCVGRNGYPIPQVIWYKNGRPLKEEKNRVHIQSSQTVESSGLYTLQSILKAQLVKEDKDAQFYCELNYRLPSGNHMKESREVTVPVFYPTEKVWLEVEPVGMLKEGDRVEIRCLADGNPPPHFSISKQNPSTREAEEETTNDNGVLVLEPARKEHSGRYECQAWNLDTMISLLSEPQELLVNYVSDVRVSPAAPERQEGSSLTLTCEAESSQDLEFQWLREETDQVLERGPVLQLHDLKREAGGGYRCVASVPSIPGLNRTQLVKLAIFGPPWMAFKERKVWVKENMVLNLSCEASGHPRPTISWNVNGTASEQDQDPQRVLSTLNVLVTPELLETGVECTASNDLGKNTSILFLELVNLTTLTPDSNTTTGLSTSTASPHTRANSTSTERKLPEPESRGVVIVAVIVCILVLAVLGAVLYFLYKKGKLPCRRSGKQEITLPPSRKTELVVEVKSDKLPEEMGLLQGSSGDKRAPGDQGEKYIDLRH
Description: The 87 independent mouse fusion clones and 26 independent rat fusion clones described in Example 1 above as being capable of (i) binding to human MCAM, and (ii) blocking the interaction between human MCAM and the α-4 chain of laminin were further characterized as follows. First, IC50 quantitation for the ability of the monoclonal antibody to block the binding of human MCAM to the α-4 chain of laminin was determined as follows. CHO cells expressing human MCAM were incubated with an anti-human MCAM antibody (at various concentrations) for 30 minutes at 4 degrees Celsius. […] Unbound laminin was then washed away, and the laminin bound to the surface of the cells was detected with fluorescently labeled anti-laminin antibodies. After washing, the amount of laminin bound to the surface was detected by flow cytometry, and IC50s were calculated based on the mean fluorescent intensity.
Amino acid and nucleic acid sequences of the heavy and light chains of these antibodies, and their hypervariable regions, are provided in SEQ ID NOs:29-92. […] As such, each of these specific monoclonal antibodies was very capable of binding to human MCAM and inhibiting the interaction of cell-expressed human MCAM with its α-4 laminin binding ligand.

[2] = biological target: T2, human MCAM domain 1 hFc construct (human, UniProt P43121 19-129); experiment: ForteBio Octet Red, MCAMhFc domains on anti-human IgG Fc sensors
T2 construct: One of the 'various MCAMhFc domains' loaded on the ForteBio sensors; also called MCAMhFc domain 1
T2 sequence: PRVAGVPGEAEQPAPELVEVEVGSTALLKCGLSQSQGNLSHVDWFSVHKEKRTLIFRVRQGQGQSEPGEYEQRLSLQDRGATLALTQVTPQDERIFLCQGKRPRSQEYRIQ
Source text: (§1) The following protocol was used: ForteBio anti-human IgG Fc biosensors were used to immobilize various MCAMhFc domains including full length MCAMhFc protein on to biosensor surface. […] After loading these samples into a black 96 well plate, the Octet Red was programmed as follows: 60 seconds for baseline #1; 180 seconds for loading various domains; 60 seconds for baseline #2; 180 seconds for association of antibody to domain; and 240 seconds for dissociation of antibody from domain.
(§2) Reagents and Supplies Used: [0358] 1. MCAMhFc final concentration @ 5 ug/ml [0359] […] 3. ForteBio anti-human IgG Fc Capture (AHC) biosensors for kinetics experiments, cat#18-5060 [0361] 4. Block 96 well plate from Greiner Bio-one, cat#655209 [0362] 5. ForteBio Octet Red machine [0363] 6. Fresh tissue culture medium, DMEM with 20% FCS, was used as buffer for dilution

[3] = biological target: T3, human MCAM domain 3 hFc construct (human, UniProt P43121 244-321); experiment: ForteBio Octet Red, MCAMhFc domains on anti-human IgG Fc sensors, antibody at 5 ug/ml
T3 construct: One of the 'various MCAMhFc domains' loaded on the ForteBio sensors; also called MCAMhFc domain 3
T3 sequence: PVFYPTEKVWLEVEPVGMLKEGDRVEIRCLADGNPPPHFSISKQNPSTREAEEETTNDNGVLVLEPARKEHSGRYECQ
Source text: as §1, §2

[4] = biological target: T4, human MCAM-Fc protein (extracellular domain of human MCAM fused to human IgG) (human, UniProt P43121 24-559); experiment: summary sentence of Example 3 (ForteBio, MCAMhFc)
T4 construct: also called hMCAM-Fc; MCAMhFc
T4 chain: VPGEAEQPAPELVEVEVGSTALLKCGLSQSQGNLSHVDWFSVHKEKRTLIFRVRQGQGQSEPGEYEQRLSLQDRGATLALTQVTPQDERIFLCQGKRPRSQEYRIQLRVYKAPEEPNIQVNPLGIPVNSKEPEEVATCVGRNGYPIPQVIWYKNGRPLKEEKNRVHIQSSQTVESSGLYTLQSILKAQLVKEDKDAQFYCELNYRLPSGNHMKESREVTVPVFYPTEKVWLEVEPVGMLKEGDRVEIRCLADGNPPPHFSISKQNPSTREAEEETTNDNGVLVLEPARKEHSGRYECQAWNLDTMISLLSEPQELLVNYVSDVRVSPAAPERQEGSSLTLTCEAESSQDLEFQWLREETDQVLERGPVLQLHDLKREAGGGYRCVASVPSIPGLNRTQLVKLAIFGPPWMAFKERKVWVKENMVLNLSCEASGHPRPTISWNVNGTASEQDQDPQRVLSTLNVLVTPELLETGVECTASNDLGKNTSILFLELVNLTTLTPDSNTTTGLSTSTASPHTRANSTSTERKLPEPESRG
Source text: as §1, §2

[5] = biological target: T5, human MCAM domains 1 and 2 hFc construct (human, UniProt P43121 19-242); experiment: ForteBio Octet Red, MCAMhFc domains on anti-human IgG Fc sensors
T5 construct: One of the 'various MCAMhFc domains' loaded on the ForteBio sensors
T5 sequence: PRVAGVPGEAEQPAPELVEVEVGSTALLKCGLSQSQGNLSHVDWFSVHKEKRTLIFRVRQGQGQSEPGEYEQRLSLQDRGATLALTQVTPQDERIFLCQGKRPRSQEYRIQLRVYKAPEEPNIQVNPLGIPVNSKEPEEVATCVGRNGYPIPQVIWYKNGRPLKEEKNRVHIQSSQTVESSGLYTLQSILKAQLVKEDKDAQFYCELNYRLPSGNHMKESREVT
Source text: as §1, §2

[6] = biological target: T6, human MCAM domain 2 hFc construct (human, UniProt P43121 139-242); experiment: as above
T6 construct: One of the 'various MCAMhFc domains' loaded on the ForteBio sensors; also called MCAMhFc domain 2
T6 sequence: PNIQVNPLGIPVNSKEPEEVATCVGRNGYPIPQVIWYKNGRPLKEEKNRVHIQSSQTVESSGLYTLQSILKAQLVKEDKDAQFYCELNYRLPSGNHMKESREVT
Source text: as §1, §2

B1: rat anti-human MCAM monoclonal antibody clone 2107.4.10 (antibody, V domains shown)
VH: QVQLKESGPGLVQSSQTLSLTCTVSGFSLTSNGVSWVRQPPGKGLEWIAAISSGGSTYYNSAFKSRLSISRNTSKSQVLLKMNSLQTEDTGMYFCARHRPFYFDYWGQGVMVTVSS
VL: DIQVTQSPSLLSASVGDRVTLNCKGSQNIYKSLAWFRLKRGEAPKLLIYDANSLQTGIPSRFSGSGSGTDFTLTITSLQPEDVATYFCQQYYSGYTFGAGTKLELK
notes: Rat hybridoma antibody
[1]
  IC50: 0.29 µg/mL
[2]
  binding result: no binding (tested: 5 ug/ml)

B2: mouse anti-human MCAM monoclonal antibody clone 1174.1.3 (antibody, V domains shown)
VH: QIQLVQSGPELKKPGETVKISCKASGYTFTNYGMNWVKQAPGKGLKWMGWINTYTGEPTYADDFKGRFALSLETSASTAYLQINNLKNEDMATYFCARYRYNKYERAMDYWGQGTSVTVSS
VL: DIVLTQSPASLAVSLGQRATISCRASKSVSTSGYSYMYWYQQKPGQPPKLLIYLASNLESGVPARFSGSGSGTDFTLNIHPVEEEDAATYYCQHSRELPFTFGSGTKLEIK
notes: Mouse hybridoma antibody
[3]
  binding result: binds
[4]
  binding result: binds
[1]
  IC50: 0.469 µg/mL
[5]
  binding result: no binding (tested: 5 ug/ml)
[6]
  binding result: no binding (tested: 5 ug/ml)
[2]
  binding result: no binding (tested: 5 ug/ml)

B3: mouse anti-human MCAM monoclonal antibody clone 1414.1.2 (antibody, V domains shown)
VH: EIQLQQTGPELVKPGASVKISCKASGYSFTDYIMLWVKQSHGKSLEWIGNINPYSGSSGYNLKFKGKATLTVDKSSSTAYMQLNSLTSEDSAVYYCARGKDFAMDYWGQGTSVTVSS
VL: DIVMSQSPSSLAVSAGEKVTMSCKSSQSLLNSSTRKNFLAWYQQKPGQSPKLLIYWASTRESGVPDRFTGSGSGTDFTLTISSVQAEDLAVYYCKQSYNRYTFGGGTKLEIK
notes: Mouse hybridoma antibody
[3]
  binding result: binds
[4]
  binding result: binds
[1]
  IC50: 0.431 µg/mL
[5]
  binding result: no binding (tested: 5 ug/ml)
[6]
  binding result: no binding (tested: 5 ug/ml)
[2]
  binding result: no binding (tested: 5 ug/ml)
